Results published in patent US20170129940A1.

How the values were obtained:
Conditions in all cases: remark: other sources report otherwise
[1] = target: T1, hCMV gH + gL + UL128 + UL130 + UL131A (co-expressed in HEK293T cells) (human cytomegalovirus), P12824; experiment: competitor: 10F7-biotin; cell staining
[2] = target: T1, hCMV gH + gL + UL128 + UL130 + UL131A …; experiment: competitor: 8I21-biotin; cell staining
[3] = target: T1, hCMV gH + gL + UL128 + UL130 + UL131A …; experiment: competitor: 1F11-biotin; cell staining
[4] = target: T1, hCMV gH + gL + UL128 + UL130 + UL131A …; experiment: competitor: 2F4-biotin; cell staining
[5] = target: T1, hCMV gH + gL + UL128 + UL130 + UL131A …; experiment: competitor: 5A2-biotin; cell staining
[6] = target: T1, hCMV gH + gL + UL128 + UL130 + UL131A …; experiment: competitor: 15D8-biotin; cell staining
[7] = target: T1, hCMV gH + gL + UL128 + UL130 + UL131A …; experiment: competitor: 2C12-biotin; cell staining
[8] = target: T1, hCMV gH + gL + UL128 + UL130 + UL131A …; experiment: competitor: 6G4-biotin; cell staining
[9] = target: T1, hCMV gH + gL + UL128 + UL130 + UL131A …; experiment: competitor: 4N10-biotin; cell staining
[10] = target: T1, hCMV gH + gL + UL128 + UL130 + UL131A …; experiment: competitor: 4I22-biotin; cell staining
[11] = target: T1, hCMV gH + gL + UL128 + UL130 + UL131A …; experiment: competitor: 8J16-biotin; cell staining
[12] = target: T1, hCMV gH + gL + UL128 + UL130 + UL131A …; experiment: competitor: 9I6-biotin; cell staining
[13] = target: T1, hCMV gH + gL + UL128 + UL130 + UL131A …; experiment: competitor: 8C15-biotin; cell staining

| Binder | Inhibition of binding (%) [1] | Inhibition of binding (%) [2] | Inhibition of binding (%) [3] | Inhibition of binding (%) [4] | Inhibition of binding (%) [5] | Inhibition of binding (%) [6] | Inhibition of binding (%) [7] | Inhibition of binding (%) [8] | Inhibition of binding (%) [9] | Inhibition of binding (%) [10] | Inhibition of binding (%) [11] | Inhibition of binding (%) [12] | Inhibition of binding (%) [13] |
| --- | --- | --- | --- | --- | --- | --- | --- | --- | --- | --- | --- | --- | --- |
| 15D8 (antibody, V domains shown) VH: EVQLVQSGAEVKKPGESLKISCQASGYSFTNYWIAWVRQMPGKGLEWMGIIYPGDSDIKYSPSFRGQVTISADKSISNAFLQWRSLRASDTAMYYCARHAIRGDGFDYWGQGTLVTVSS VL: SYELTQPPSVSVSPGQTATITCSGDKLGEKYACWYQQKPGQSPVLVMYQDTKRPSGIPERFSGSNSGNTATLTISGTRAMDEADYYCQAWDTNTVIFGGGTKLTVL | 0% | 0% | 0% | 0% | 0% | 100% | 0% | 0% | 0% | 0% | – | – | – |
| 4N10 (antibody, V domains shown) VH: QVQLVQSGAEVKKPGSSVRVSCKASGGTFSSYVIIWVRQAPGQGLEWMGGVIPIFDTVNYAQKFQGRVTITADESTSTAYMELSSLKSEDTAVYYCARGILAYCGGDCYNTPYGMDVWGQGTTVTVSS VL: DIQMTQSPSILSASVGDRVTITCRASQSISSWLAWYQQKPGKAPKLLIYKASSLEIGVPSRISGSGSGTEFTLTISSLQPDDFATYYCQQYNSSWTFGQGTKVEIK | 0% | 90% | 0% | 0% | 100% | 0% | 0% | 0% | 100% | 0% | – | – | – |
| 10F7 (antibody, V domains shown) VH: EVQLVESGGGLVQPGRSLRLSCTASGFTFGDYAMSWFRQAPGKGLEWVGFIRSKAYGGTTEYAASVKGRFTISRDDSKSIAYLQMNSLKTEDTAVYYCTRASSLLWLLNPQPNFDYWGQGTLVTVSS VL: SYVLTQPPSVSVAPGQTARITCGGNNIGSNNVHWYQQKPGQAPVLVVYDDSDRPSGIPERFSGSNSGNTATLTISRVEAGDEADYYCQVWDSSSDHPVFGGGTKLTVL | 100% | 0% | 100% | 100% | 0% | 0% | 0% | 0% | 0% | 100% | – | – | – |
| 10P3 (antibody, V domains shown) VH: EVQLVESGGGLVRPGGSLRLSCAASGFTFHNYRMNWVRQAPGKGLEWVANIKQDGSEKSYVDSVRGRFTTSRDNSKNSLYLQINSLRAEDTAVYYCARGEGYTYGVVYSYSAMDVWGQGTTVIVSS VL: SYELTQPPSVSVSPGQTARITCSGNVLPNQYASWYQQKPGQAPVLVIYKDTERPSGIPGRFSGSSSGTTVTLTISGVQAEDEADYYCQSADSSGADYVFGTGTKVTVL | – | 0% | 0% | 0% | – | 0% | 0% | 0% | – | 0% | – | – | – |
| 4I22 (antibody, V domains shown) VH: QVQLVESGGGVVQPGRSLRLSCVASGFTFSSYAMHWVRQAPGKGLEWVAVISYDGDNKFYADSVKGRFRISRDTSKNTLYLEMNSLRAADTAIYYCAREELVGLMPPYYNYGLDVWGQGTTVTVSS VL: QSVLTQPPSVSAAPGQKVTISCSGSNSNIGNNYVSWYQQLPGRAPKLLIYDNDHRPSGIPDRFSGSKSGTSATLVITGLQTGDEADYYCETWDTSLSAAVVFGGGTKLTVL | 100% | 0% | 100% | 100% | 0% | – | 0% | – | 0% | 100% | 0% | – | – |
| 8L13 (antibody, V domains shown) VH: QVQLLESGGGVVQPGRSLRLSCAASGFTFSNYGMHWVRQAPGKGLEWVAVIWNDGSKKYYAESVKGRFTISRDNSKNTVYLQMNSLRAEDTAVYYCARDEGVQMVFAMPDYGMDVWGQGTTVTVSS VL: SYELTQPPSVSVSPGQTASITCSGDKLGDKFACWYQQRPGQSPILVIYQDSKRPSGIPERFSGSNSGNTATLTIRGTQAMDEADYYCQAWDSSTAHYVFGTGTKVTVL | 100% | – | 100% | – | – | – | – | – | – | – | – | – | – |
| 7I13 (antibody, V domains shown) VH: QVQLVESGGGVVQPGRSLRLSCAASGFTFSNYGMHWVRQGPGKGLEWVAVISYDASSKYYTDSVQGRFTISRDNSKNTLFLQMNSLRGEDTAVYYCAKALRYLDWFLSDPFDYWGQGTLVTVSS VL: EIVLTQSPGTLSLSPGERATLSCRASQSVSSDFLAWYQQKPGQAPRLLIYGASSRATGIPDRFSGSGSGTDFTLTISRLEPEDFAVYYCQQYAASPPFGQGTRLEIK | – | 0% | 0% | – | – | – | 0% | 0% | – | – | 0% | 0% | 0% |
| 8C15 (antibody, V domains shown) VH: QVQLQESGPGLVKPSETLSLTCTVSGGSIRSYYWSWIRQPPGKGLEWIGHIYYSGNTNYSPSLQSRVTISLDTPKNQFSLRLSSVTAADTAVYYCARHDVIVVRGVFDVWGQGTVVTVSS VL: QSALTQPASVSGSPGQSITISCTGTSSDIGTYNLVSWYQQHPGKAPKVLIYDGSKRPSGVSSRFSASKSGNTASLTISGLQAEDETDYYCCSYAGTSDFFVVFGGGTKLTVL | – | 0% | – | – | – | – | 100% | 100% | – | 0% | 100% | 100% | 100% |
| 8J16 (antibody, V domains shown) VH: QVQLQESGPGLVKPSETLSLTCSVSGGFTSSYYWSWIRQAPGKGLEWIGYVYYGESTDYNPSLKSRATISIDTSKNQFSLKLSSVTAADTAVYYCAREVDKRGFDYWGQGALVTVSS VL: EIVLTQSPGTLSLSPGERATLSCRASQSVSGGYLAWYQQEPGQAPRLVIYGASSRATGIPDRFSASGSGTDFTLTITRLEPEDFAVYYCQQYGRTPLTFGGGTKVEIK | – | 0% | 0% | 0% | – | – | 100% | 100% | – | 0% | 100% | 70% | 100% |
| 8I21 (antibody, V domains shown) VH: LVELVESGGGVVQPGRSLRLSCAASGFTFSSDGMHWVRQSPGRGLEWVAFISSDGSTPYYADSVKGRFTISRDNSKNTLYLQMNSLRAEDTAMYFCAKDWALFRWLRTFDHWGQGTLVTVSS VL: not shown | – | 100% | 0% | 0% | 95% | 0% | 0% | 0% | 90% | 0% | – | – | – |
| 7B13 (antibody, V domains shown) VH: QVQLVESGGGVVQPGGSLRLSCAASGFSFSNYGMHWVRQAPGKGLEWVALIPSDGNYQYYTDSVKGRFTVSRDNSRNTLYLQMKSLRAEDTARYHCAHLGGGLFDFWGQGTLVTVSS VL: QSALNQPRSVSGSPGQSVSISCTGSSSDVGGYEFVSWYQHHPGKAPKLIIYDVDKRPSGVPDRFSGSRSGDTASLTISGLQAEDEADYYCYSSADTWVFGGGTKLTVL | – | 0% | – | – | – | – | 100% | 100% | – | – | 100% | 100% | 100% |
